# Assay results: the supplement of paper PMC12764529
# ± gives the half width of the 95% confidence interval.
# What was measured:
# [1] = folding stability dG unfold from trypsin proteolysis; higher = more stable
# Method in brief: (§1)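 Digests were run with trypsin and chymotrypsin at 11 concentrations in threefold dilutions, plus a no-protease condition, on designed mini-proteins in a PA-tagged cDNA display construct. The mini-proteins were under 80 residues, had no cysteine, and were kept only when AlphaFold2 dimer inter-PAE was above 15. After sequencing, Bayesian fitting of the counts gave K50, from which unfolding free energy was derived against a sequence-predicted unfolded-state K50 and a shared folded-state K50, per protease or combined.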
# [2] = folding stability dG unfold from chymotrypsin proteolysis; higher = more stable
# Method in brief: as §1
# [3] = folding stability dG unfold (combined trypsin and chymotrypsin); higher = more stable
# Method in brief: as §1
Sequence,folding stability dG unfold [1] [kJ/mol],folding stability dG unfold [2] [kJ/mol],folding stability dG unfold [3] [kJ/mol]
SAGGSAGGSAGMKTTYDPDTNKLSITLPNGTVATYYLGTGVIEIPDEVSSKEDIKVEKAASAGGSAGGSAGG [r17_174_JUSTAS],1.34 ± 0.46,4 ± 0.711,3.3 ± 0.628
SAGGSAGGSAGMKTVTVTVPPSAGVDAVREALAAQGMTVTSVSREGDTLTVTTEAPPELLSAGGSAGGSAGG [r11_672_JUSTAS],-3.62 ± 0.586,1.23 ± 0.335,0.101 ± 0.544
SAGGSAGGSAGMKVTIEENEETGKFTIKVKTEDGEEKTIEIPKENLEEILAKLPPNVEIISAGGSAGGSAGG [r11_569_TrROS_Hall],10.6 ± 0.46,8.05 ± 0.151,8.94 ± 0.711
SAGGSAGGSAGMKVTVTITYPGGKVTTLDGDPEEVKAALPSSLTDVKITVTDPATGKVAASAGGSAGGSAGG [r11_353_JUSTAS],-0.89 ± 0.251,3.51 ± 0.134,2.66 ± 0.502
SAGGSAGGSAGMKVVVELEVTFDSEEEAEAVAKAIAEELGSEDVVVKVIRKPVELGPGLKSAGGSAGGSAGG [r17_285_JUSTAS],0.373 ± 0.255,3.73 ± 0.13,2.74 ± 0.213
SAGGSAGGSAGMKVVVTLPDRTVTIPVNGTLDEAKEAVIKRAEELFGKPIPIEEITMSGESAGGSAGGSAGG [r11_1028_JUSTAS],2.83 ± 0.126,-0.102 ± 0.347,1.71 ± 0.46
SAGGSAGGSAGMLIELTVETSVTTVSTPDATFTVVTLKEPGKPETLGTVVYDPATGSPALSAGGSAGGSAGG [r11_645_JUSTAS],2.57 ± 0.151,-4.01 ± 1.63,0.705 ± 0.586
SAGGSAGGSAGMLKKSPSPSIITVKIKPPDSDEVKTINIPPDKPEEVEKLREKGLEIEVLSAGGSAGGSAGG [r11_1006_JUSTAS],-1.92 ± 1.46,-0.745 ± 1.55,-0.883 ± 1.09
SAGGSAGGSAGMMKVRIRVDGKEIEIEVPPGMTVDEIAERLKKEFGKDIEIEVEEVKPEPSAGGSAGGSAGG [r11_805_TrROS_Hall],15.6 ± 0.962,13.3 ± 0.418,14.2 ± 0.92
SAGGSAGGSAGMPEVEVEVKIIKFDKEKNVFVIEVTDKKTGKRVTLTIKNGKIELKVEEPSAGGSAGGSAGG [r17_370_TrROS_Hall],11.9 ± 0.41,17 ± 0.372,15.5 ± 0.795
SAGGSAGGSAGMPKRKITKIETEELPPELIRVTITLPDGTPVPVVVSPDDEEVKAIIEKLSAGGSAGGSAGG [r11_122_JUSTAS],-0.215 ± 1.26,0.472 ± 0.544,1.3 ± 1
SAGGSAGGSAGMPLTVLGTEEIGDSTTVTTKDPTSDELYRKTYTNGAVSSTEIVPASELGSAGGSAGGSAGG [r11_19_JUSTAS],0.0894 ± 0.222,1.18 ± 0.293,0.906 ± 0.301
SAGGSAGGSAGMPVKVVLVKWKGGGLEPEGGEEREVEIGPEELEKLVKEAEKEGYEVYPASAGGSAGGSAGG [r17_18_TrMRF],0.691 ± 0.46,-0.527 ± 1.46,0.286 ± 1.51
SAGGSAGGSAGMRLVTITLTTEKPIFDENGNPIGTTTRTVVLEREVPEPEVPEVPLYQALSAGGSAGGSAGG [r11_131_JUSTAS],1.27 ± 0.753,0.792 ± 0.753,1.09 ± 0.711
SAGGSAGGSAGMRTITIPIPDGDPENIEEQARELADAFPDLKGKKVNIEYHKDGWITITVSAGGSAGGSAGG [r17_324_TrROS],2.9 ± 0.628,4.98 ± 0.418,4.81 ± 0.753
SAGGSAGGSAGMRYEIEVEEVPPGLVRIRVRVDGKEYTILISEEEAKRLAEELGVEIEPVSAGGSAGGSAGG [r17_109_TrROS_Hall],13.6 ± 0.502,9.54 ± 0.293,11.6 ± 0.795
SAGGSAGGSAGMSVSLTSTTVSLPPELLSPEEAARTEDAVVTTTTSTLPAVVDPATGTVTSAGGSAGGSAGG [r17_310_JUSTAS],8.05 ± 0.238,2.17 ± 0.18,5.81 ± 0.385
SAGGSAGGSAGMTITKTEDGTYRLTLTVTETLPNGSTVTRTVTLTVPLEDAEEILAALPPSAGGSAGGSAGG [r11_505_TrROS_Hall],10.5 ± 0.46,12 ± 0.134,11.4 ± 0.372
SAGGSAGGSAGMTITLPNGAEITSIEINEDGTITITVRVNGKTLTLTITVTLPPPPPEEPSAGGSAGGSAGG [r17_421_TrROS_Hall],15.4 ± 0.711,14.8 ± 0.669,15.4 ± 0.753
SAGGSAGGSAGMTLIYKDPETGKYYIVDFEESGPERVFEVDSLDEAEEIAEKLGRKLDPLSAGGSAGGSAGG [r11_1049_TrMRF],5.81 ± 0.121,10.84 ± 0.0753,9.66 ± 0.23
SAGGSAGGSAGMTVEEFTIPEVGGRVIRTTVEEPTEDGVVVRRRYLILVNPDGTVERRPESAGGSAGGSAGG [r11_911_JUSTAS],-0.194 ± 0.711,0.544 ± 0.711,0.465 ± 0.385
